Source: US20050207995A1

What was measured:
[1] = target: human salivary α-amylase (Type IX A, Sigma Chemical Co.) (human); assay: ELISA: amylase (10.0 µg/ml) coated, 65 kDa protein added, detected with rat anti-65 kDa serum
[2] = target: human whole saliva (human); assay: ELISA: 1:2 dilution of whole saliva coated, 65 kDa protein added, detected with rat anti-65 kDa serum

Sequence of human salivary α-amylase (Type IX A, Sigma Chemical Co.) (human) (P0DUB6 16-511): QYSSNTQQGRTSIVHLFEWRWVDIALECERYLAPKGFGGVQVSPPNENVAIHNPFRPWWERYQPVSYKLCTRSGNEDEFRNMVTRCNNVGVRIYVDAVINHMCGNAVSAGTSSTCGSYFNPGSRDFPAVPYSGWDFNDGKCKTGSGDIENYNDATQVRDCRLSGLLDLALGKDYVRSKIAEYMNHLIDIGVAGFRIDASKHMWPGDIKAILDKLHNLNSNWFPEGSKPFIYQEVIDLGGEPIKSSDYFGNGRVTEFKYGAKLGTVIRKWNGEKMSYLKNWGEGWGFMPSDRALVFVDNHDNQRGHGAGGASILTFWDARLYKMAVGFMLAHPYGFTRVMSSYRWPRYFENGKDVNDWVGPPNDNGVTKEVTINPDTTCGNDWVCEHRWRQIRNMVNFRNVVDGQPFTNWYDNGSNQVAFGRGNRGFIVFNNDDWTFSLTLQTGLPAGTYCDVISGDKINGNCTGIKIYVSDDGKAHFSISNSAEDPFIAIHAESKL

purified 65 kDa fimbrial protein of S. mutans A32-2 (serotype c) (enzyme)
O.D. (ELISA absorbance at 490 nm) [1]: 0.25 O.D. | O.D. (ELISA absorbance at 490 nm) [2]: 0.26 O.D.
